Assay results from doi:10.1101/2023.05.10.540157 (bioRxiv, 2023).
Like-named read-outs stand apart in the source and are kept apart here.

Key:
[1] = target: T1, mineralocorticoid receptor (MR), NanoBiT fusion LgBiT-MR (UniProt P08235 1-984); experiment: split reporter
T1 sequence: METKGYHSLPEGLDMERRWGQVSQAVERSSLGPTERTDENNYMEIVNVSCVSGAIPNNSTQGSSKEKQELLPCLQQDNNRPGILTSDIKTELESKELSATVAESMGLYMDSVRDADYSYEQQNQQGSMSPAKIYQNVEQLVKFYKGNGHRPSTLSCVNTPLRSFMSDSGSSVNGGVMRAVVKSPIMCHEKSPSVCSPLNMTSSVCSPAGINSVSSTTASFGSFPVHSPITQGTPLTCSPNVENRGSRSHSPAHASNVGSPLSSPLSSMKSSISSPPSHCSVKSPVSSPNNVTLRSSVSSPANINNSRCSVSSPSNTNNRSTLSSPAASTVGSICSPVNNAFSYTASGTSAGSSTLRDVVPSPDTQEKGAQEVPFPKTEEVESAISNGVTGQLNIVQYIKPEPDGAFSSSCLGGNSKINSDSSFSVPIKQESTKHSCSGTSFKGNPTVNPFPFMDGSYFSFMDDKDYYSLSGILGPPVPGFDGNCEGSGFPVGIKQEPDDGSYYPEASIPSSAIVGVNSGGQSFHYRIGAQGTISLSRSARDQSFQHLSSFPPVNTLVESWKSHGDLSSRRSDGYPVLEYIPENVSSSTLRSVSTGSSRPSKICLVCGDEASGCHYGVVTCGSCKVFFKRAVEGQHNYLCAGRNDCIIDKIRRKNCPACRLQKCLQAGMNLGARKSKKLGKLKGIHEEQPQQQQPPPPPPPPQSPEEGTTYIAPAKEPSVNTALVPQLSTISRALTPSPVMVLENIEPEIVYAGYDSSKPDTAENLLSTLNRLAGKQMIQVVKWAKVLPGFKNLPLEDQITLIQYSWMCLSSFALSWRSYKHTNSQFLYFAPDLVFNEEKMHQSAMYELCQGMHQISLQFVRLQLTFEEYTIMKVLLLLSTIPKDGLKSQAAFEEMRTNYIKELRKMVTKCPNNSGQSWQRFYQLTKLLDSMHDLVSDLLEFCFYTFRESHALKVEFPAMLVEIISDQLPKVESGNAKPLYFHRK

[2] = target: T1, mineralocorticoid receptor (MR), …; experiment: split reporter; remark: listed apart in the source

fold induction of NanoBiT luminescence versus solvent [1]: ~6 fold
fold induction of NanoBiT luminescence versus solvent [2]: ~8 fold
B1: glucocorticoid receptor (GR), NanoBiT fusion GR-SmBiT (receptor)
chain: MDSKESLTPGREENPSSVLAQERGDVMDFYKTLRGGATVKVSASSPSLAVASQSDSKQRRLLVDFPKGSVSNAQQPDLSKAVSLSMGLYMGETETKVMGNDLGFPQQGQISLSSGETDLKLLEESIANLNRSTSVPENPKSSASTAVSAAPTEKEFPKTHSDVSSEQQHLKGQTGTNGGNVKLYTTDQSTFDILQDLEFSSGSPGKETNESPWRSDLLIDENCLLSPLAGEDDSFLLEGNSNEDCKPLILPDTKPKIKDNGDLVLSSPSNVTLPQVKTEKEDFIELCTPGVIKQEKLGTVYCQASFPGANIIGNKMSAISVHGVSTSGGQMYHYDMNTASLSQQQDQKPIFNVIPPIPVGSENWNRCQGSGDDNLTSLGTLNFPGRTVFSNGYSSPSMRPDVSSPPSSSSTATTGPPPKLCLVCSDEASGCHYGVLTCGSCKVFFKRAVEGQHNYLCAGRNDCIIDKIRRKNCPACRYRKCLQAGMNLEARKTKKKIKGIQQATTGVSQETSENPGNKTIVPATLPQLTPTLVSLLEVIEPEVLYAGYDSSVPDSTWRIMTTLNMLGGRQVIAAVKWAKAIPGFRNLHLDDQMTLLQYSWMFLMAFALGWRSYRQSSANLLCFAPDLIINEQRMTLPCMYDQCKHMLYVSSELHRLQVSYEEYLCMKTLLLLSSVPKDGLKSQELFDEIRMTYIKELGKAIVKREGNSSQNWQRFYQLTKLLDSMHEVVENLLNYCFQTFLDKTMSIEFPEMLAEIITNQIPKYSNGNIKKLLFHQK
